Earlier results as cited in paper PMC10586765.

Molecular target: UBL4A (Homo sapiens) (UniProt P11441)
Assay: surface plasmon resonance

Sequence of UniProt P11441 (P11441 whole entry): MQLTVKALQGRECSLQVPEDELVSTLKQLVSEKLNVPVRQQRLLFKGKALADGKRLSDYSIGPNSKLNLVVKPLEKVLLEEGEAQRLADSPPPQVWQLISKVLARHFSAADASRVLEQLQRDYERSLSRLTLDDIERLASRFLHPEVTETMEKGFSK

Kd: 2.2 nM
Substance: BAG6 (from UniProt P46379)
